Results taken from doi:10.1101/2025.01.28.635353, “DyAb: sequence-based antibody design and property prediction in a low-data regime” (bioRxiv, 2025).
Changes are numbered by the printed parent chain.

B1: anti-EGFR lead (antibody, V domains shown)
VH: EVKLQQSGDETMRPGASVRMSCKAYGYTFTDYSVHWIRQRPGQGLEWIGIIIPLIDTTRYNQKFKGKAVLTADTSSDTAYMELSRLTFEDSAVYYCARSYGSSGDDWFAYWGQGTLVTVSS
VL: DTVLTQSPALSVSPGERVDISCRASESVSTLLHWYQQKPGQQPTLLISLASSLESGVPARFSGSGSGTDFTLTIDPVEADDTAIYYCQESWNEPYAFGAGTKLELK
notes: the Fab of this antibody was crystallised and deposited as PDB 9MU1 (heavy chain); the Fab of this antibody was crystallised and deposited as PDB 9MU1 (light chain); The methods tell the production (Expi293, purified) only of the DyAb designs; The Fab for the crystal was made in CHO cells; also called aEGFR lead; starting point lead candidate
B2: aEGFR-R1-1 (antibody, V domains shown)
VH: B1 VH with V34M, V69T, G101D, S102P
VL: B1 VL
notes: the Fab was crystallised and deposited as PDB 9MSW (heavy chain); as the heavy chain of m1 with four mutations across CDR-H1, CDR-H3 and the framework (Kabat numbering); the Fab was crystallised and deposited as PDB 9MSW (light chain); The Fab for the crystal was made in CHO cells; also called R1-1 design; DyAb design aEGFR-R1-1; source: Expi293, transiently expressed, purified from supernatant

Target: T1, EGFR (Homo sapiens, isoform 1 (assumed), UniProt P00533)
T1 construct: EGFR, the target antigen injected in SPR
Experiment: SPR; antibody captured on a Protein A chip, target antigen injected 5 min, dissociation 10 min at 30 µL/min; multi-cycle mode; 37 degC; HBS-EP+ (10 mM Hepes pH 7.4, 150 mM NaCl, 0.3 mM EDTA, 0.05% Surfactant P20); 1:1 Langmuir fit; absolute affinities of the leads are medians across all experimental rounds
Details: both partners purified

Binder	Kd	binding result
B1	3 nM	–
B2	–	binds
